Measurements: patent US20230250154A1 (CYTONICS, published 2023)

T1: ADAMTS5 (human, UniProt Q9UNA0 262-622, limits assumed)
T1 sequence (looked up): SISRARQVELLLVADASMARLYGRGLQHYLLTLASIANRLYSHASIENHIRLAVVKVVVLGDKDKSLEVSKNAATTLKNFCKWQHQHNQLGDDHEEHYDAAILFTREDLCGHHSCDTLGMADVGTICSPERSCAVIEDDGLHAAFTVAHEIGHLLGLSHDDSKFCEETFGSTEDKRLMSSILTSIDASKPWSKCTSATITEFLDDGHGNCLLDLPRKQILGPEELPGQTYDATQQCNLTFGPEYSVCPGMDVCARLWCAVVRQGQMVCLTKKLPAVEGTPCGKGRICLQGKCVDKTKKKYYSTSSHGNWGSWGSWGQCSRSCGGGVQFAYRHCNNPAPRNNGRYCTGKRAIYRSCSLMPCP

T2: ADAMTS4 (human, UniProt O75173 213-685, limits assumed)
T2 sequence (looked up): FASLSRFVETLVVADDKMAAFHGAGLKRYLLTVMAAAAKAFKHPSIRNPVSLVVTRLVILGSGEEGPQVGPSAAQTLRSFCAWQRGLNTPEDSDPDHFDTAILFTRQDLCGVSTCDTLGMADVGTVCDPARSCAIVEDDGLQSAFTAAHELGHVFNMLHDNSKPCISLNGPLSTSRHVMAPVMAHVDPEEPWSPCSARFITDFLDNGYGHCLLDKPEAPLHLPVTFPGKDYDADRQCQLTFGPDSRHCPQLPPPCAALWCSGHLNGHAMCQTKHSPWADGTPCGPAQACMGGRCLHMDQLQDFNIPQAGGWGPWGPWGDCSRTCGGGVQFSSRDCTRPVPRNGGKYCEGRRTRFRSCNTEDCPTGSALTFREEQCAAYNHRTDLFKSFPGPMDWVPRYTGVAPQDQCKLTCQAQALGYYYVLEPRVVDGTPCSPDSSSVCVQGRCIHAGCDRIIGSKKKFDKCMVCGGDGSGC


Assays:
Experiment in all cases: cell-based or functional assay
MMP13 = MMP13 (human, UniProt P45452 104-471, limits assumed)
ADAMTS5 = target: T1, ADAMTS5
ADAMTS4 = target: T2, ADAMTS4

Binder | Protease Inhibition (% of WT) (MMP13) | Protease Inhibition (% of WT) (ADAMTS5) | Protease Inhibition (% of WT) (ADAMTS4)
Variant A2M, bait region SEQ ID NO 89 (other) SVSGKPQYMVLVPSLLHTETTEKGCVLLSYLNETVTVSASLESVRGNRSLFTDLEAENDVLHCVAFAVPKSSSNEEVMFLTVQVKGPTQEFKKRTTVMVKNEDSLVFVQTDKSIYKPGQTVKFRVVSMDENFHPLNELIPLVYIQDPKGNRIAQWQSFQLEGGLKQFSFPLSSEPFQGSYKVVVQKKSGGRTEHPFTVEEFVLPKFEVQVTVPKIITILEEEMNVSVCGLYTYGKPVPGHVTVSICRKYSDASDCHGEDSQAFCEKFSGQLNSHGCFYQQVKTKVFQLKRKEYEMKLHTEAQIQEEGTVVELTGRQSSEITRTITKLSFVKVDSHFRQGIPFFGQVRLVDGKGVPIPNKVIFIRGNEANYYSNATTDEHGLVQFSINTTNVMGTSLTVRVNYKDRSPCYGYQWVSEEHEEAHHTAYLVFSPSKSFVHLEPMSHELPCGHTQTVQAHYILNGGTLLGLKKLSFYYLIMAKGGIVRTGTHGLLVKQEDMKGHFSISIPVKSDIAPVARLLIYAVLPTGDVIGDSAKYDVENCLANKVDLSFSPSQSLPASHAHLRVTAAPQSVCALRAVDQSVLLMKPDAELSASSVYNLLPEKDLTGFPGPLNDQDDEDCINRHNVYINGITYTPVSSTNEKDMYSFLEDMGLKAFTNSKIRKPKMCPQLEQYEMHGPEGLRVGKEEEGLGSFYESDVMGRGHARLVHVEEPHTKLLRKYFPETWIWDLVVVNSAGVAEVGVTVPDTITEWKAGAFCLSEDAGLGISSTASLRAFQPFFVELTMPYSVIRGEAFTLKATVLNYLPKCIRVSVQLEASPAFLAVPVEKEQAPHCICANGRQTVSWAVTPKSLGNVNFTVSAEALESQELCGTEVPSVPEHGRKDTVIKPLLVEPEGLEKETTFNSLLCPSGGEVSEELSLKLPPNVVEESARASVSVLGDILGSAMQNTQNLLQMPYGCGEQNMVLFAPNIYVLDYLNETQQLTPEIKSKAIGYLNTGYQRQLNYKHYDGSYSTFGERYGRNQGNTWLTAFVLKTFAQARAYIFIDEAHITQALIWLSQRQKDNGCFRSSGSLLNNAIKGGVEDEVTLSAYITIALLEIPLTVTHPVVRNALFCLESAWKTAQEGDHGSHVYTKALLAYAFALAGNQDKRKEVLKSLNEEAVKKDNSVHWERPQKPKAPVGHFYEPQAPSAEVEMTSYVLLAYLTAQPAPTSEDLTSATNIVKWITKQQNAQGGFSSTQDTVVALHALSKYGAATFTRTGKAAQVTIQSSGTFSSKFQVDNNNRLLLQQVSLPELPGEYSMKVTGEGCVYLQTSLKYNILPEKEEFPFALGVQTLPQTCDEPKAHTSFQISLSVSYTGSRSASNMAIVDVKMVSGFIPLKPTVKMLERSNHVSRTEVSSNHVLIYLDKVSNQTLSLFFTVLQDVPVRDLKPAIVKVYDYYETDEFAIAEYNAPCSKDLGNADYKDDDDKGASHHHHHH | 1 % of WT | 485 % of WT | 101 % of WT
Variant A2M, bait region SEQ ID NO 93 (other) SVSGKPQYMVLVPSLLHTETTEKGCVLLSYLNETVTVSASLESVRGNRSLFTDLEAENDVLHCVAFAVPKSSSNEEVMFLTVQVKGPTQEFKKRTTVMVKNEDSLVFVQTDKSIYKPGQTVKFRVVSMDENFHPLNELIPLVYIQDPKGNRIAQWQSFQLEGGLKQFSFPLSSEPFQGSYKVVVQKKSGGRTEHPFTVEEFVLPKFEVQVTVPKIITILEEEMNVSVCGLYTYGKPVPGHVTVSICRKYSDASDCHGEDSQAFCEKFSGQLNSHGCFYQQVKTKVFQLKRKEYEMKLHTEAQIQEEGTVVELTGRQSSEITRTITKLSFVKVDSHFRQGIPFFGQVRLVDGKGVPIPNKVIFIRGNEANYYSNATTDEHGLVQFSINTTNVMGTSLTVRVNYKDRSPCYGYQWVSEEHEEAHHTAYLVFSPSKSFVHLEPMSHELPCGHTQTVQAHYILNGGTLLGLKKLSFYYLIMAKGGIVRTGTHGLLVKQEDMKGHFSISIPVKSDIAPVARLLIYAVLPTGDVIGDSAKYDVENCLANKVDLSFSPSQSLPASHAHLRVTAAPQSVCALRAVDQSVLLMKPDAELSASSVYNLLPEKDLTGFPGPLNDQDDEDCINRHNVYINGITYTPVSSTNEKDMYSFLEDMGLKAFTNSKIRKPKMCPQLEQYEMHGPEGLRVGVSQELGQRFYESDVMGRGHARLVHVEEPHTKLLRKYFPETWIWDLVVVNSAGVAEVGVTVPDTITEWKAGAFCLSEDAGLGISSTASLRAFQPFFVELTMPYSVIRGEAFTLKATVLNYLPKCIRVSVQLEASPAFLAVPVEKEQAPHCICANGRQTVSWAVTPKSLGNVNFTVSAEALESQELCGTEVPSVPEHGRKDTVIKPLLVEPEGLEKETTFNSLLCPSGGEVSEELSLKLPPNVVEESARASVSVLGDILGSAMQNTQNLLQMPYGCGEQNMVLFAPNIYVLDYLNETQQLTPEIKSKAIGYLNTGYQRQLNYKHYDGSYSTFGERYGRNQGNTWLTAFVLKTFAQARAYIFIDEAHITQALIWLSQRQKDNGCFRSSGSLLNNAIKGGVEDEVTLSAYITIALLEIPLTVTHPVVRNALFCLESAWKTAQEGDHGSHVYTKALLAYAFALAGNQDKRKEVLKSLNEEAVKKDNSVHWERPQKPKAPVGHFYEPQAPSAEVEMTSYVLLAYLTAQPAPTSEDLTSATNIVKWITKQQNAQGGFSSTQDTVVALHALSKYGAATFTRTGKAAQVTIQSSGTFSSKFQVDNNNRLLLQQVSLPELPGEYSMKVTGEGCVYLQTSLKYNILPEKEEFPFALGVQTLPQTCDEPKAHTSFQISLSVSYTGSRSASNMAIVDVKMVSGFIPLKPTVKMLERSNHVSRTEVSSNHVLIYLDKVSNQTLSLFFTVLQDVPVRDLKPAIVKVYDYYETDEFAIAEYNAPCSKDLGNADYKDDDDKGASHHHHHH | 119 % of WT | 66 % of WT | 27 % of WT
Variant A2M, bait region SEQ ID NO 94 (other) SVSGKPQYMVLVPSLLHTETTEKGCVLLSYLNETVTVSASLESVRGNRSLFTDLEAENDVLHCVAFAVPKSSSNEEVMFLTVQVKGPTQEFKKRTTVMVKNEDSLVFVQTDKSIYKPGQTVKFRVVSMDENFHPLNELIPLVYIQDPKGNRIAQWQSFQLEGGLKQFSFPLSSEPFQGSYKVVVQKKSGGRTEHPFTVEEFVLPKFEVQVTVPKIITILEEEMNVSVCGLYTYGKPVPGHVTVSICRKYSDASDCHGEDSQAFCEKFSGQLNSHGCFYQQVKTKVFQLKRKEYEMKLHTEAQIQEEGTVVELTGRQSSEITRTITKLSFVKVDSHFRQGIPFFGQVRLVDGKGVPIPNKVIFIRGNEANYYSNATTDEHGLVQFSINTTNVMGTSLTVRVNYKDRSPCYGYQWVSEEHEEAHHTAYLVFSPSKSFVHLEPMSHELPCGHTQTVQAHYILNGGTLLGLKKLSFYYLIMAKGGIVRTGTHGLLVKQEDMKGHFSISIPVKSDIAPVARLLIYAVLPTGDVIGDSAKYDVENCLANKVDLSFSPSQSLPASHAHLRVTAAPQSVCALRAVDQSVLLMKPDAELSASSVYNLLPEKDLTGFPGPLNDQDDEDCINRHNVYINGITYTPVSSTNEKDMYSFLEDMGLKAFTNSKIRKPKMCPQLEQYEMHGPEGLRVGTEGEARGSFYESDVMGRGHARLVHVEEPHTKLLRKYFPETWIWDLVVVNSAGVAEVGVTVPDTITEWKAGAFCLSEDAGLGISSTASLRAFQPFFVELTMPYSVIRGEAFTLKATVLNYLPKCIRVSVQLEASPAFLAVPVEKEQAPHCICANGRQTVSWAVTPKSLGNVNFTVSAEALESQELCGTEVPSVPEHGRKDTVIKPLLVEPEGLEKETTFNSLLCPSGGEVSEELSLKLPPNVVEESARASVSVLGDILGSAMQNTQNLLQMPYGCGEQNMVLFAPNIYVLDYLNETQQLTPEIKSKAIGYLNTGYQRQLNYKHYDGSYSTFGERYGRNQGNTWLTAFVLKTFAQARAYIFIDEAHITQALIWLSQRQKDNGCFRSSGSLLNNAIKGGVEDEVTLSAYITIALLEIPLTVTHPVVRNALFCLESAWKTAQEGDHGSHVYTKALLAYAFALAGNQDKRKEVLKSLNEEAVKKDNSVHWERPQKPKAPVGHFYEPQAPSAEVEMTSYVLLAYLTAQPAPTSEDLTSATNIVKWITKQQNAQGGFSSTQDTVVALHALSKYGAATFTRTGKAAQVTIQSSGTFSSKFQVDNNNRLLLQQVSLPELPGEYSMKVTGEGCVYLQTSLKYNILPEKEEFPFALGVQTLPQTCDEPKAHTSFQISLSVSYTGSRSASNMAIVDVKMVSGFIPLKPTVKMLERSNHVSRTEVSSNHVLIYLDKVSNQTLSLFFTVLQDVPVRDLKPAIVKVYDYYETDEFAIAEYNAPCSKDLGNADYKDDDDKGASHHHHHH | 173 % of WT | 395 % of WT | 121 % of WT
